This passage reports fraction ligated results from the supplement of paper PMC6755084.

The labels stand for the following.
B1: F1*; the commonest letter at each place (parent)
chain: GAGACCGCAACTGAAAAGTTGTTATCACTTGTCGTAAGACACTTTGGATGGGTTGAAGTTCTGCACGTAGAAGCAAAAGGC

The data set covers variants of B1. Put plainly: fraction ligated after 30 min (ligated reads / total reads); higher = more ligase activity. To be noted: with F1*sub RNA substrate (template-directed ligation), 42 °C. The procedure, abridged:
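The ligase ribozyme variants were produced by PCR amplification of oligo-pool templates, T7 transcription and purification on gel. Their ligated and unligated forms were gel-separated, then reverse transcribed with barcoded primers before MiSeq sequencing. Core bases were filtered at a quality of ≥20, and fraction ligated per variant was ligated reads over total reads.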
Take GAGACCGCAACTGAAAAGTTGTTATAACTTGTCGTAAGACACTTTGGATGGGTTGATGTTCTGCACGTAGAAGCAAAAGGC [C26A A57T]: the fraction ligated is 0.738.

GAGACCGCAACTGAAAAGTTGTTATAACTTGTCGTAAGACACTTTGGATGGGTTGACGTTCTGCACGTAGAAGCAAAAGGC [C26A A57C]: the fraction ligated turned out to be 0.717.

On to GAGACCGCAACTGAAAAGTTGTTATAACTTGTCGTAAGACACTTTGGATGGGTTGAGGTTCTGCACGTAGAAGCAAAAGGC [C26A A57G], for which the fraction ligated came to 0.804.

For the variant GAGACCGCAACTGAAAAGTTGTTATAACTTCTCGTAAGACACTTTGGATGGGTTGAAGTTCTGCACGTAGAAGCAAAAGGC [C26A G31C], the fraction ligated came to 0.226.

As to GAGACCGCAACTGAAAAGTTGTTATAACTTTTCGTAAGACACTTTGGATGGGTTGAAGTTCTGCACGTAGAAGCAAAAGGC [C26A G31T], the fraction ligated turned out to be 0.0438.

Regarding GAGACCGCAACTGAAAAGTTGTTATAACTTATCGTAAGACACTTTGGATGGGTTGAAGTTCTGCACGTAGAAGCAAAAGGC [C26A G31A], the fraction ligated was determined as 0.261.

Turning to GAGACCGCAACTGAAAAGTTGTTATAACTTGTCGTAAGACATTTTGGATGGGTTGAAGTTCTGCACGTAGAAGCAAAAGGC [C26A C42T], the fraction ligated came to 0.793.

In the case of GAGACCGCAACTGAAAAGTTGTTATAACTTGTCGTAAGACAGTTTGGATGGGTTGAAGTTCTGCACGTAGAAGCAAAAGGC [C26A C42G], the fraction ligated was found to be 0.731.

Take GAGACCGCAACTGAAAAGTTGTTATAACTTGTCGTAAGACAATTTGGATGGGTTGAAGTTCTGCACGTAGAAGCAAAAGGC [C26A C42A]: the fraction ligated turned out to be 0.773.

Turning to GAGACCGCAACTGAAAAGTTGTTATAACTTGTGGTAAGACACTTTGGATGGGTTGAAGTTCTGCACGTAGAAGCAAAAGGC [C26A C33G], the fraction ligated was found to be 0.792.

For the variant GAGACCGCAACTGAAAAGTTGTTATAACTTGTAGTAAGACACTTTGGATGGGTTGAAGTTCTGCACGTAGAAGCAAAAGGC [C26A C33A], the fraction ligated turned out to be 0.721.

As for GAGACCGCAACTGAAAAGTTGTTATAACTTGTTGTAAGACACTTTGGATGGGTTGAAGTTCTGCACGTAGAAGCAAAAGGC [C26A C33T], the fraction ligated came to 0.829.

Regarding GAGACCGCAACTGAAAAGTTGTTATAACTTGTCGTAACACACTTTGGATGGGTTGAAGTTCTGCACGTAGAAGCAAAAGGC [C26A G38C], the fraction ligated worked out at 0.313.

Consider GAGACCGCAACTGAAAAGTTGTTATAACTTGTCGTAAAACACTTTGGATGGGTTGAAGTTCTGCACGTAGAAGCAAAAGGC [C26A G38A], for which the fraction ligated amounted to 0.774.

Regarding GAGACCGCAACTGAAAAGTTGTTATAACTTGTCGTAATACACTTTGGATGGGTTGAAGTTCTGCACGTAGAAGCAAAAGGC [C26A G38T], the fraction ligated was 0.793.

As to GAGACCGCAACTGAAAAGTTGTTATAACTTGTCGTAAGACACTTTGGTTGGGTTGAAGTTCTGCACGTAGAAGCAAAAGGC [C26A A48T], the fraction ligated amounted to 0.00798.

For the variant GAGACCGCAACTGAAAAGTTGTTATAACTTGTCGTAAGACACTTTGGGTGGGTTGAAGTTCTGCACGTAGAAGCAAAAGGC [C26A A48G], the fraction ligated was found to be 0.123.

In the case of GAGACCGCAACTGAAAAGTTGTTATAACTTGTCCTAAGACACTTTGGATGGGTTGAAGTTCTGCACGTAGAAGCAAAAGGC [C26A G34C], the fraction ligated came out at 0.805.

Consider GAGACCGCAACTGAAAAGTTGTTATAACTTGTCATAAGACACTTTGGATGGGTTGAAGTTCTGCACGTAGAAGCAAAAGGC [C26A G34A], for which the fraction ligated is 0.786.

GAGACCGCAACTGAAAAGTTGTTATAACTTGTCTTAAGACACTTTGGATGGGTTGAAGTTCTGCACGTAGAAGCAAAAGGC [C26A G34T]: the fraction ligated worked out at 0.808.

GAGACCGCAACTGAAAAGTTGTTATAACTTGTCGTAAGACACTTTGCATGGGTTGAAGTTCTGCACGTAGAAGCAAAAGGC [C26A G47C]: the fraction ligated was found to be 0.0466.

With GAGACCGCAACTGAAAAGTTGTTATAACTTGTCGTAAGACACTTTGAATGGGTTGAAGTTCTGCACGTAGAAGCAAAAGGC [C26A G47A], the fraction ligated amounted to 0.762.

With GAGACCGCAACTGAAAAGTTGTTATAATTTGTCGTAAGACACTTTGGATGGGTTGAAGTTCTGCACGTAGAAGCAAAAGGC [C26A C28T], the fraction ligated was 0.584.

Take GAGACCGCAACTGAAAAGTTGTTATAAGTTGTCGTAAGACACTTTGGATGGGTTGAAGTTCTGCACGTAGAAGCAAAAGGC [C26A C28G]: the fraction ligated is 0.395.

Take GAGACCGCAACTGAAAAGTTGTTATAAATTGTCGTAAGACACTTTGGATGGGTTGAAGTTCTGCACGTAGAAGCAAAAGGC [C26A C28A]: the fraction ligated was 0.64.

For the variant GAGACCGCAACTGAAAAGTTGTTATAACTTGTCGTAAGACACTTTGGATGGGTTGCAGTTCTGCACGTAGAAGCAAAAGGC [C26A A56C], the fraction ligated was determined as 0.0368.

With GAGACCGCAACTGAAAAGTTGTTATAACTTGTCGTAAGACACTTTGGATGGGTTGTAGTTCTGCACGTAGAAGCAAAAGGC [C26A A56T], the fraction ligated came out at 0.14.

As for GAGACCGCAACTGAAAAGTTGTTATAACTTGTCGTAAGACACTTTGGATGGGTTGGAGTTCTGCACGTAGAAGCAAAAGGC [C26A A56G], the fraction ligated came to 0.096.

With GAGACCGCAACTGAAAAGTTGTTATAACTTGTCGTAAGACACTTTTGATGGGTTGAAGTTCTGCACGTAGAAGCAAAAGGC [C26A G46T], the fraction ligated was found to be 0.449.

On to GAGACCGCAACTGAAAAGTTGTTATAACTTGTCGTAAGACACTTTAGATGGGTTGAAGTTCTGCACGTAGAAGCAAAAGGC [C26A G46A], for which the fraction ligated is 0.73.

Regarding GAGACCGCAACTGAAAAGTTGTTATAACTTGTCGTAAGACACTTTCGATGGGTTGAAGTTCTGCACGTAGAAGCAAAAGGC [C26A G46C], the fraction ligated was determined as 0.744.

For GAGACCGCAACTGAAAAGTTGTTATAACTTGTCGTAAGAAACTTTGGATGGGTTGAAGTTCTGCACGTAGAAGCAAAAGGC [C26A C40A], the fraction ligated worked out at 0.755.

Turning to GAGACCGCAACTGAAAAGTTGTTATAACTTGTCGTAAGAGACTTTGGATGGGTTGAAGTTCTGCACGTAGAAGCAAAAGGC [C26A C40G], the fraction ligated came out at 0.793.

Turning to GAGACCGCAACTGAAAAGTTGTTATAACTTGTCGTAAGATACTTTGGATGGGTTGAAGTTCTGCACGTAGAAGCAAAAGGC [C26A C40T], the fraction ligated was determined as 0.814.
